{
  "source": "paper PMC7511342",
  "about": "“Polyol and sugar osmolytes can shorten protein hydrogen bonds to modulate function” (Communications Biology, 2020)",
  "binders": {"B1": {"name": "C-terminal peptide from CRIPT (Ac-TKNYKQTSV-COOH) (peptide)", "peptide": "Ac-TKNYKQTSV-OH", "notes": "C-terminal nine residues of CRIPT; also called CRIPT peptide; source: synthetic peptide (APeptide Co. Ltd, Shanghai, China)"}},
  "biological_target": "T1, PDZ3 (the third PDZ domain of the neuronal signaling protein PSD-95/SAP90, residue 303-395) (UniProt P31016 303-395)",
  "T1 construct": "third PDZ domain of PSD-95/SAP90, residues 303-395; 15N-labelled for the NMR titration; also called PDZ3^303-395",
  "T1 sequence (P31016 303-395)": "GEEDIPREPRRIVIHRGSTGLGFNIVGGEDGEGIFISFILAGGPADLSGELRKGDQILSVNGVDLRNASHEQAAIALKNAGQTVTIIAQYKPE",
  "assay": "NMR titration; 2D 1H-15N HSQC of 15N-labelled PDZ3 303-395 (20 uM) titrated with CRIPT peptide 0-100 uM; 308 K; 20 mM sodium phosphate, 50 mM NaCl, pH 7.0; no osmolyte; single-site fit of 12 backbone amides, averaged",
  "conditions": "both partners purified",
  "data": [
    {"binder": "B1", "values": [
      {"measurement": "Kd", "value": "~13", "unit": "µM"}
    ]}
  ]
}
